The target in assay [1] is human αvβ5 integrin (human, UniProt P06756 31-1048; P18084 24-799). Description: cell-based or functional assay.
Assay [2] deals with T1, human αvβ3 integrin (human, UniProt P06756 31-1048; P05106 27-788). Description: cell-based or functional assay.
The target of assay [3] is mouse αvβ5 integrin (mouse, UniProt P43406 31-1044; O70309 24-798). Description: cell-based or functional assay.
Assay [4] concerns the target mouse αvβ3 integrin (mouse) (UniProt P43406). Description: cell-based or functional assay.
Assay [5] concerns the target T1, human αvβ3 integrin. Description: co-immunoprecipitation from MDA-MB-231 cells, blot for β3 subunit.

Chain of human αvβ5 integrin (P06756 31-1048, chain 1 of 2): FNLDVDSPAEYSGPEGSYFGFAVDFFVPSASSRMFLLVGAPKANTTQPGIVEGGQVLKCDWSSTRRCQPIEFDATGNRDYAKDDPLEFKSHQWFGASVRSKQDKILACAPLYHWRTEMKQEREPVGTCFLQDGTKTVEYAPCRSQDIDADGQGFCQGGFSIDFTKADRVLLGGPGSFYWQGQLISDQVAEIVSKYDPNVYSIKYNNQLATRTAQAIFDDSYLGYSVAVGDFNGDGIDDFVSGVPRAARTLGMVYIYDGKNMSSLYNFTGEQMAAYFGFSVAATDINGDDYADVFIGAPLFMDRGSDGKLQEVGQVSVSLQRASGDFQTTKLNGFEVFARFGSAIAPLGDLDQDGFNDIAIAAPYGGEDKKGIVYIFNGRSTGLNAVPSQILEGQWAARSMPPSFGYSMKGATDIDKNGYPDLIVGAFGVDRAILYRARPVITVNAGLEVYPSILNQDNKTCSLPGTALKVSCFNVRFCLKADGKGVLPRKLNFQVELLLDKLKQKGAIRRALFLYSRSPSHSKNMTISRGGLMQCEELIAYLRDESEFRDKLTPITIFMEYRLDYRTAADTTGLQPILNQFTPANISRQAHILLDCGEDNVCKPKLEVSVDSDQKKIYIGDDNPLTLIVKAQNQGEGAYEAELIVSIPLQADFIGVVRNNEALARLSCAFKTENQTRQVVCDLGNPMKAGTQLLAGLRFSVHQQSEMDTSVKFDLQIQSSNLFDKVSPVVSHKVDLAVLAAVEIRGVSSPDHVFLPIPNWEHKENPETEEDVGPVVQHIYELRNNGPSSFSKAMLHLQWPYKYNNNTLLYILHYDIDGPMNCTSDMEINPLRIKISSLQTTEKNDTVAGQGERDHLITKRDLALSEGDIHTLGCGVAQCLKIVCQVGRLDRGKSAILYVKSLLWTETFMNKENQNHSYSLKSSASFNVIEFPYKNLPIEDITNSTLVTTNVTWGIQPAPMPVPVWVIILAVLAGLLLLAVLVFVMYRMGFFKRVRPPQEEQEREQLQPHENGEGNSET
Chain of human αvβ5 integrin (P18084 24-799, chain 2 of 2): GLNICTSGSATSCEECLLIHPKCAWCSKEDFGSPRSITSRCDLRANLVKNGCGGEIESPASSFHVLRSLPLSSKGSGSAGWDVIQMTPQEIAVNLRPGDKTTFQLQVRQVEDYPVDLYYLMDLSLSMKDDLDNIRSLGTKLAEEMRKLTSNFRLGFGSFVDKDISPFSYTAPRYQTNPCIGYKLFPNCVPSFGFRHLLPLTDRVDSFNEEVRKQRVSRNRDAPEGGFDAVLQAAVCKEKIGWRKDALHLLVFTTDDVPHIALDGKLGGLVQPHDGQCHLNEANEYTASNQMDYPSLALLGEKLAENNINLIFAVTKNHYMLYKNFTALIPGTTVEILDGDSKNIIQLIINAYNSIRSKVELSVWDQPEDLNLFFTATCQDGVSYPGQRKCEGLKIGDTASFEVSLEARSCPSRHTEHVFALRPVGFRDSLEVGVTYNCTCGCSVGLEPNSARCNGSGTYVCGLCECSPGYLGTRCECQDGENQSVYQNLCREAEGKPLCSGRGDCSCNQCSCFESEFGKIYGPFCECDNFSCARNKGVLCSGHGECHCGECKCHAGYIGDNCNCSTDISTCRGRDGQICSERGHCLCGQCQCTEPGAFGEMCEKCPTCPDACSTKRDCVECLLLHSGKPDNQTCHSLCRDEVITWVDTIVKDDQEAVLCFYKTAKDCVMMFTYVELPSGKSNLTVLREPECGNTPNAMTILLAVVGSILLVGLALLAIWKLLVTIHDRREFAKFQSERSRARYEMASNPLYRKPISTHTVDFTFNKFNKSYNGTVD
T1 sequence (P06756 31-1048, chain 1 of 2): as the sequence (P06756 31-1048, chain 1 of 2) above
T1 sequence (P05106 27-788, chain 2 of 2): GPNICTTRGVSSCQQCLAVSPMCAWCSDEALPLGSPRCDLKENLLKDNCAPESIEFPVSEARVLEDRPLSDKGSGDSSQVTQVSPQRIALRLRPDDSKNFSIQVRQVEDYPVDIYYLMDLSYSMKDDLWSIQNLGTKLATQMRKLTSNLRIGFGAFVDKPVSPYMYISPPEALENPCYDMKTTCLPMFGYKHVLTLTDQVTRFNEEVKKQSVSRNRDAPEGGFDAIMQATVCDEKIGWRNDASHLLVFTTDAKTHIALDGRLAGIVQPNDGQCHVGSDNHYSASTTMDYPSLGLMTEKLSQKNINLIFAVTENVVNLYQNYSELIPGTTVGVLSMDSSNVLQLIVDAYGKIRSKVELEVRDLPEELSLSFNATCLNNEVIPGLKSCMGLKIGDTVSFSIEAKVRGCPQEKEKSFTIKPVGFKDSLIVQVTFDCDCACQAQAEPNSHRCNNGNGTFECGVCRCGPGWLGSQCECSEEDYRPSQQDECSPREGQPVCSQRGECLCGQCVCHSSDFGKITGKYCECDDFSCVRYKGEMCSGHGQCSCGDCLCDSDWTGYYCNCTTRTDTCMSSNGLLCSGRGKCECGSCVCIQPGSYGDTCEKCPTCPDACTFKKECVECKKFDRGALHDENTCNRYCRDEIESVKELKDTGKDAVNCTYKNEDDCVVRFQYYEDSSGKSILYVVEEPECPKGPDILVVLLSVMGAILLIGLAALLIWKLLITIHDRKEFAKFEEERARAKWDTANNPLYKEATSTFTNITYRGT
Chain of mouse αvβ5 integrin (P43406 31-1044, chain 1 of 2): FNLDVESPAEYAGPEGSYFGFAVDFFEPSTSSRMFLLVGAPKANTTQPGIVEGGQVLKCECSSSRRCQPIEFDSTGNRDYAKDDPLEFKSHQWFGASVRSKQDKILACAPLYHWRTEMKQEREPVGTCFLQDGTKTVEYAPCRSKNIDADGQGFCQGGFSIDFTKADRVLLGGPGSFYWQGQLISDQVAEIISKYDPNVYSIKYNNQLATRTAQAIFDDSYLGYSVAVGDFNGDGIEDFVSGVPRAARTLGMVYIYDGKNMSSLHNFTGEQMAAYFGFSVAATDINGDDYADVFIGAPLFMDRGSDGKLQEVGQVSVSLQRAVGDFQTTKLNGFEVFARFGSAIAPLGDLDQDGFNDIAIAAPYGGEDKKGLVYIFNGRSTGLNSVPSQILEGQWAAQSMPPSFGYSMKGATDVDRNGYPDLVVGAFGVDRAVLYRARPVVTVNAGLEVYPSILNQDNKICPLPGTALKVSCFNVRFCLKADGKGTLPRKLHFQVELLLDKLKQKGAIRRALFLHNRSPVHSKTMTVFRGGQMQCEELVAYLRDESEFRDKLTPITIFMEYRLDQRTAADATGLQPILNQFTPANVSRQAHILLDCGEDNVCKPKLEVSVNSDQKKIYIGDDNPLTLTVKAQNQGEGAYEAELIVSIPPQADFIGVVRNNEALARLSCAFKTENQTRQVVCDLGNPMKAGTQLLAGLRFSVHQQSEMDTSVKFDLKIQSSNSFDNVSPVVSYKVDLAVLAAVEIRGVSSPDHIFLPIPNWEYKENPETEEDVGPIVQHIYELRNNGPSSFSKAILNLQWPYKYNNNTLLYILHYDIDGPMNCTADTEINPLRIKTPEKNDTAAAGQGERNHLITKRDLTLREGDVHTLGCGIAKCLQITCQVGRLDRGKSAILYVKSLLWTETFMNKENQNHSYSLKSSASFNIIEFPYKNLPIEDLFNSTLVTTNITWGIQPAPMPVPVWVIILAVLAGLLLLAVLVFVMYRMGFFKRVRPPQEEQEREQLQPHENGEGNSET
Chain of mouse αvβ5 integrin (O70309 24-798, chain 2 of 2): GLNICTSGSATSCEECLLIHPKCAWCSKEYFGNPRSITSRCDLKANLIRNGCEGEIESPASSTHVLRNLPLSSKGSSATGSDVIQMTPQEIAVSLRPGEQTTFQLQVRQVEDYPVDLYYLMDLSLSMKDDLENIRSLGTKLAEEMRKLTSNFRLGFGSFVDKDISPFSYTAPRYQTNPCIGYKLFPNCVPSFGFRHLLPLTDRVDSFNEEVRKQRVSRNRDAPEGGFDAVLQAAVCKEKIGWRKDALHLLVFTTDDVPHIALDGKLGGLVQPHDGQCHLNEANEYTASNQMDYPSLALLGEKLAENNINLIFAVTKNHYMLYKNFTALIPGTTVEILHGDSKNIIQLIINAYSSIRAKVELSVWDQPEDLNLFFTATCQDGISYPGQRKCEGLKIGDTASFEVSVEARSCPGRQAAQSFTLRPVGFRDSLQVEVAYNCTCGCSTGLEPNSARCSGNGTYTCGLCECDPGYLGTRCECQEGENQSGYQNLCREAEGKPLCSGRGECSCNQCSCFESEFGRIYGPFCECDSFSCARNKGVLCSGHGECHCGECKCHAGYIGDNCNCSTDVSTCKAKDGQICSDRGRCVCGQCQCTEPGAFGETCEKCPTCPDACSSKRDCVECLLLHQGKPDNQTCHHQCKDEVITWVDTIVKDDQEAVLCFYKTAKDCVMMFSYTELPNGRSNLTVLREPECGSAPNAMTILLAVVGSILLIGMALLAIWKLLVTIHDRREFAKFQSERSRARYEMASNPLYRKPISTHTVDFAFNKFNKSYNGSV

For “GST-mS1ED (recombinant mouse Sdc1 ectodomain, amino acids 18-251, expressed as a fusion protein with GST) (from UniProt P18828 18-251)”, in assay [1], the HMEC spreading on VN turned out to be 5 µM; the IC50, HAEC spreading on VN stood at 1000 nM; the IC50, HMEC-1 spreading on VN was in the range of 3000 to 10000 nM; the concentration that blocks endothelial cell attachment to VN altogether turned out to be 10 µM. In assay [1], this molecule had a percent reduction of HMEC spreading on VN at 1 µM mS1ED of more than 80% and a percent reduction of HMEC spreading on VN at 3 µM mS1ED of more than 90%. In assay [2], this molecule returned an HMEC spreading on VN of 5 µM; an IC50, HAEC spreading on VN of 1000 nM; an IC50, HMEC-1 spreading on VN of 3000 to 10000 nM; a concentration that blocks endothelial cell attachment to VN altogether of 10 µM. In assay [2], this molecule gave a percent reduction of HMEC spreading on VN at 1 µM mS1ED of more than 80% and a percent reduction of HMEC spreading on VN at 3 µM mS1ED of more than 90%. Moreover, the spreading of mouse aortic endothelial cells on VN in assay [3] came out at 1 µM. This molecule also showed a spreading of mouse aortic endothelial cells on VN in assay [4] of 1 µM.

B1: mouse syndecan-1 mutant bearing deletion of amino acids 67-121 (receptor, UniProt P18828 23-311, looked up)
chain: QIVAVNVPPEDQDGSGDDSDNFSGSGTGALPDTLSRQTPSTWKDVTTRPRETVQLPITQRASTVRVTTAQAAVTSHPHGGMQPGLHETSAPTAPGQPDHQPPRVEGGGTSVIKEVVEDGTANQLPAGEGSGEQDFTFETSGENTAVAAVEPGLRNQPPVDEGATGASQSLLDRKEVLGGVIAGGLVGLIFAVCLVAFMLYRMKKKDEGSYSLEEPKQANGGAYQKPTKQEEFYA
notes: whole, on cells; also called mouse mutant lacking the active site
B1: the binding result in assay [5] is “no binding”.

B2: SSTN88-117 (30-mer) (peptide)
peptide: FTSVLPAGEKPEEGEPVLHVEAEPGFTARD
Turning to B2, the “fold less active, HMEC-1 attachment and spreading on VN” value in assay [1] and in assay [2] was 3 fold throughout.

B3: synstatin82-130 (SSTN82-130, 49-mer, amino acids 82-130 of mouse Sdc-1) (peptide)
peptide: SNTETAFTSVLPAGEKPEEGEPVLHVEAEPGFTARDKEKEVTTRPRETV
For the molecule B3, in assay [1], the “IC50, HMEC-1 spreading on VN” value was approximately 100 nM and the “fold lower concentration than mS1ED for equal inhibition, endothelial cells on VN” value stood at 10 fold. In addition, in assay [2], the “IC50, HMEC-1 spreading on VN” value is approximately 100 nM; the “IC50, MDA-MB-231 spreading on VN” value was approximately 100 nM; the “fold lower concentration than mS1ED for equal inhibition, endothelial cells on VN” value is 10 fold. The “IC50, B82L fibroblast spreading on VN” value in assay [3] was approximately 100 nM.

B4: hSSTN 88-121 (amino acids 88-121 of the human Sdc1 sequence) (peptide)
peptide: ASTSTLPAGEGPKEGEAVVLPEVEPGLTAREQEA
Consider B4, for which, in assay [2], the “IC50, MDA-MB-231 attachment and spreading on VN” value was in the range of 100 to 300 nM.

B5: hSSTN 89-120 (amino acids 89-120 of the human Sdc1 sequence) (peptide)
peptide: STSTLPAGEGPKEGEAVVLPEVEPGLTAREQE
For B5, the “IC50, MDA-MB-231 attachment and spreading on VN” value in assay [2] was in the range of 100 to 300 nM.

The values above are taken from patent US20080020979A1 (WISCONSIN ALUMNI RESEARCH FOUNDATION, published 2008).
